Columns and labels:
DLD-1 = assay: Drug combination screen (ATPlite, Synergy Score), DLD-1; details: compound in combination with IgG1-hDR5-01-G56T-E430G + IgG1-hDR5-05-E430G; DLD-1; 120 hour ATPlite, 6x6 matrix
HCT 116 = assay: Drug combination screen (ATPlite, Synergy Score), HCT 116; details: compound in combination with IgG1-hDR5-01-G56T-E430G + IgG1-hDR5-05-E430G; HCT 116; 120 hour ATPlite, 6x6 matrix
LS-411N = assay: Drug combination screen (ATPlite, Synergy Score), LS-411N; format: cell-based, human; details: compound in combination with IgG1-hDR5-01-G56T-E430G + IgG1-hDR5-05-E430G; LS-411N; 72 hour ATPlite, 6x6 matrix
SW480 = assay: Drug combination screen (ATPlite, Synergy Score), SW480; format: cell-based, human; details: compound in combination with IgG1-hDR5-01-G56T-E430G + IgG1-hDR5-05-E430G; SW480; 72 hour ATPlite, 6x6 matrix
SNU-C2B = assay: Drug combination screen (ATPlite, Synergy Score), SNU-C2B; details: compound in combination with IgG1-hDR5-01-G56T-E430G + IgG1-hDR5-05-E430G; SNU-C2B; 72 hour ATPlite, 6x6 matrix

B1: TNF-related apoptosis-inducing ligand (protein, UniProt P50591 1-281, looked up)
Tumor necrosis factor ligand …: MAMMEVQGGPSLGQTCVLIVIFTVLLQSLCVAVTYVYFTNELKQMQDKYSKSGIACFLKEDDSYWDPNDEESMNSPCWQVKWQLRQLVRKMILRTSEETISTVQEKQQNISPLVRERGPQRVAAHITGTRGRSNTLSSPNSKNEKALGRKINSWESSRSGHSFLSNLHLRNGELVIHEKGFYYIYSQTYFRFQEEIKENTKNDKQMVQYIYKYTSYPDPILLMKSARNSCWSKDAEYGLYSIYQGGIFELKENDRIFVSVTNEHLIDMDHEASFFGAFLVG
Synergy Score DLD-1 (DLD-1): 0
Synergy Score HCT-116 (HCT 116): 0
Synergy Score LS-411N (LS-411N): 0.1
Synergy Score SW480 (SW480): 0.9
Synergy Score SNU-C2B (SNU-C2B): 0.2

Source: patent publication US20200247897A1, “THERAPEUTIC ANTIBODIES BASED ON MUTATED IGG HEXAMERS” (GENMAB B.V., priority 2017, published 2020)
